In the RNAGym collection of RNA variant scans (doi:10.7554/elife.90254) one finds self-cleavage data, which are given here for 167 variants.

B1: OR4K15 (parent)
chain: GUUAACGGUCAUAGGCCAUGGAAACUAGGAGCACCAUUUCGCUGCCAGUGAAGAAAUGAACAAAGAAAAUCUGGGCCAGGCAGGCAUCAAAAGAAAUAGUCUUGCGCUCAACCAGAAAGUCUGUAAUCAUUUUAAGGGUA

Variants of B1 are the subject of this data set. Kind of data set: self-cleavage, relative activity (ratio to wild type); higher = more cleavage; in vitro, sequencing; the parent is a self-cleaving ribozyme.
As to A33U A62G, the self-cleavage stood at 1.52. For the variant A33U A62U, the self-cleavage was 2.26. To A30U G93A belongs 1.63; to A30G U139C, 1.03; to A30G U139A, 1.46. To A33U U39A belongs 1.4; to A33G A90G, 0.46. A33G A89G: the self-cleavage worked out at 0.84. As for A33G A89U, the figure is 1.27. On to A30G U133C, for which the self-cleavage was found to be 1.8. As for G31A U38C, the figure is 1.93.

Regarding G31A A117G, the self-cleavage was found to be 1.42. Turning to A33U U87A, the self-cleavage is 2.04. To A33U U87C belongs 1.74; to C32U U57C, 1.07; to A30G A94G, 1.29.

For the variant A30U A33G, the self-cleavage came to 0.69.

As to A33G A111G, the self-cleavage is 0.02. As to C32U A95G, the self-cleavage came to 2.11. With C32U C45G, the self-cleavage is 1.23. A33G C76U: the self-cleavage turned out to be 0.12. G31U A54G: the self-cleavage was determined as 1.34. To G31C U87C belongs 2.1; to A33G G115U, 0.06; to A33G U70C, 0.22. Take A30C A56G: the self-cleavage turned out to be 1.27.

Turning to A30U A36U, the self-cleavage amounted to 1.67. As for A33G A98U, the figure is 1.19.

For the variant A30U A68U, the self-cleavage worked out at 1.5. Regarding A30U A55G, the self-cleavage was 1.55. To A33G U103A belongs 0.46; to A33G U103C, 0.4. On to A33G A92U, for which the self-cleavage is 0.42. As for A30G A67G, the figure is 0.91.

Turning to A30U U127C, the self-cleavage worked out at 0.71.

On to A33U A56G, for which the self-cleavage is 1.57. As for A30G C40A, the figure is 1.42. To A33U U100C belongs 1.84; to G31A U43A, 2.08. As for A30G A47U, the figure is 1.27; as for A30C A51U, 2.04; as for A30C A68G, 0.67.

Consider A30G A59U, for which the self-cleavage came to 1.18. As for A33G A69G, the figure is 0.28; as for A30C A125G, 0.31; as for A30U A129G, 1.24. To A30U A129U belongs 0.63. As for C32U A67G, the figure is 1.67; as for A30U A63G, 2.01; as for A33G U133C, 0.88. Turning to A30G A55G, the self-cleavage came to 1.14. To A30C A111G belongs 0.07; to A30G A91U, 1.67. For A30G A91G, the self-cleavage worked out at 0.24. Regarding A33C G74A, the self-cleavage is 0.38. To A33U A54G belongs 0.76. As for A33C G50U, the self-cleavage worked out at 1.41.

Consider A30U A60G, for which the self-cleavage stood at 0.45. For A33U U49G, the self-cleavage amounted to 2.25.

As to A30G U72C, the self-cleavage turned out to be 0.24. To A30G U72A belongs 0.36. To C32A U87C belongs 1.38; to A33U A90G, 1.06.

Regarding G29U A90G, the self-cleavage was 1.1. Take G31A A60G: the self-cleavage came out at 0.77. As for A33C A67U, the figure is 1.28; as for A33U A140G, 2.18; as for G29U A91G, 1.67.

For the variant G31A A55G, the self-cleavage came out at 1.7.

Regarding C32A C128A, the self-cleavage is 0.81. Turning to A30G A90G, the self-cleavage was 1.37. To A30U C77U belongs 1.77; to A33G U122A, 0.6. With A30U U38C, the self-cleavage was 1.69.

A30G G106U: the self-cleavage worked out at 0.04. Take A30G G106A: the self-cleavage was 0.07. In the case of A33C A66U, the self-cleavage was 1.52.

In the case of A33U U72C, the self-cleavage was found to be 0.3. With A30G A78G, the self-cleavage stood at 0.11. As for A30G A78U, the figure is 0.41; as for A30U A82G, 0.52; as for A30G A95U, 1.42. Consider A30G A95C, for which the self-cleavage was determined as 1.26.

As to A33U A134G, the self-cleavage turned out to be 1.2. To C32U A60G belongs 1.38; to C32U U70C, 0.69; to A30C U38C, 1.02. To A30U U37C belongs 0.84. To A33G A86U belongs 0.87. In the case of A30G A86G, the self-cleavage worked out at 1.41. As for A30G A86U, the figure is 1.37. As to A30G A60U, the self-cleavage is 0.79. As for C32U A78U, the figure is 0.38. As for C32U A78G, the figure is 0.53; as for A33U C35U, 1.93.

As to C32A A110U, the self-cleavage was determined as 2.04. In the case of C32A A90G, the self-cleavage turned out to be 1.27.

A30U A118G: the self-cleavage came to 1.45. As for A33C A69G, the figure is 1.71; as for A33U U124C, 1.22; as for A30G G31A, 1.61. To C32U A55G belongs 0.65. To C32U A51G belongs 1.88; to A30U C107A, 0.01.

Consider A30C A96G, for which the self-cleavage stood at 1.43. As for A30C A33G, the figure is 1.9.

In the case of A33U A129U, the self-cleavage was 1.42. As for A33U A129G, the figure is 1.03. Turning to A30G U37G, the self-cleavage is 1.08.

On to A30G G75C, for which the self-cleavage was 0.19. As for A33C U124G, the figure is 1.02. As for G31U A36G, the figure is 2.23. For the variant A33G A54U, the self-cleavage is 1.04. Turning to A33U U70C, the self-cleavage came to 1. As to C32U A94G, the self-cleavage came out at 1.5. As for A33U G99A, the figure is 1.09; as for A30U G115A, 0.22. On to A30G A126U, for which the self-cleavage came to 0.87. To A30G A126G belongs 1.23; to A30G C45U, 1.06; to A30U A59G, 0.34. To G31A A92G belongs 1.57; to G31U A118G, 1.06; to G31A U57C, 1.2. Turning to A30G G79A, the self-cleavage amounted to 0.17.

As to A30U A52G, the self-cleavage is 1.08.

Turning to C32U A69G, the self-cleavage turned out to be 1.21. Take A33G A135U: the self-cleavage is 0.95.

For the variant A30G G58A, the self-cleavage turned out to be 0.67. Turning to A33U A60G, the self-cleavage was determined as 1.38. As for A30U A64G, the figure is 1.56; as for A33G U102G, 0.47. To G31A G137U belongs 1.5; to A30G G137U, 0.71.

With A30G G137A, the self-cleavage is 1.06. As for C32U A110G, the figure is 0.23.

As to A33G U43C, the self-cleavage is 0.71. Consider A33G A125G, for which the self-cleavage was 0.23. As for A33G A125U, the figure is 1.17. Take A30G A111G: the self-cleavage was found to be 0.05.

Consider A33G A94U, for which the self-cleavage was determined as 0.59. To A30G G44A belongs 1.15. To C32U A111G belongs 0.01; to C32A, 1.2; to C32G, 1.25.

As for C32U, the self-cleavage is 1.28. As for A30G A62C, the figure is 1.38. With G31A A52U, the self-cleavage turned out to be 1.32. As for A33C A140U, the figure is 1.4. Consider G31A A78U, for which the self-cleavage came out at 0.43. As to G31A A78G, the self-cleavage turned out to be 0.27. To A33U A82G belongs 0.88; to A33G U100C, 2.23.

Regarding A33G U87C, the self-cleavage was found to be 0.7. As for A33G U87A, the figure is 0.66; as for A30U A114U, 0.11; as for G31U A60G, 1.37. As for A33G U131C, the figure is 0.63; as for G31U A111U, 0.15; as for A33C U38C, 1.53. To A33U A66U belongs 1.62; to A33U A55G, 1.84; to A30C U103G, 0.01.

For A33G G138A, the self-cleavage amounted to 0.65. Consider A30G U49G, for which the self-cleavage was found to be 1.48.

Regarding A33G A126G, the self-cleavage was 0.7. To A33U A59G belongs 1.28.
